Earlier results on 1 substance are cited in paper PMC11939966.

The target of the data set is Tristetraprolin (TTP) (Homo sapiens) (UniProt P26651). In words: ITC.
UniProt P26651, sequence (P26651 whole entry): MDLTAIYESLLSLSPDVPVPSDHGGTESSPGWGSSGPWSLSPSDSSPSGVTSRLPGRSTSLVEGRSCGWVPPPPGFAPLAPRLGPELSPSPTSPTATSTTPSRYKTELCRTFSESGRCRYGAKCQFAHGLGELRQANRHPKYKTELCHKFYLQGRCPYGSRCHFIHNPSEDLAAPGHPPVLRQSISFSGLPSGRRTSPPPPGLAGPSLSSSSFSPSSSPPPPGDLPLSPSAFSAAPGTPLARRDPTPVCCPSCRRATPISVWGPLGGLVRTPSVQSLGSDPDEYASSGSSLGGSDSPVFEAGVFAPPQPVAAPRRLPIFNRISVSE

One may read the Kd as the free concentration of one partner at which half of the binding sites on the other are occupied at equilibrium, for simple one-to-one binding. As for CNOT1 800-999 (from UniProt A5YKK6), the Kd was 2000 nM.
